Assay results reported in patent publication US11707504B1 (KING FAISAL UNIVERSITY, dated 2023).

Biological target: HCoV-229E spike (S) protein, S2 subunit fusion core (HR1/HR2) (human coronavirus 229E, UniProt P15423)
Experiment: cell-based or functional assay

**Q.** Which “IC50 (plaque reduction test, Vero E6 cells)” value does the source give for SLTQINTTLLDLTYEMLSLQQVVKALNESYIDLKEL [peptide #1 (Peptide 1 (WT))] here?
**A.** 8.5 µg/mL
